According to patent USRE44359 (Hoffmann-La Roche Inc, dated 2013):

Biological target: T1, Recombinant P-selectin (R&D Systems) (human, UniProt P16109 42-771)
T1 construct: extracellular domain; also called recombinant human P-selectin; recombinant truncated form of P-selectin
T1 sequence (looked up): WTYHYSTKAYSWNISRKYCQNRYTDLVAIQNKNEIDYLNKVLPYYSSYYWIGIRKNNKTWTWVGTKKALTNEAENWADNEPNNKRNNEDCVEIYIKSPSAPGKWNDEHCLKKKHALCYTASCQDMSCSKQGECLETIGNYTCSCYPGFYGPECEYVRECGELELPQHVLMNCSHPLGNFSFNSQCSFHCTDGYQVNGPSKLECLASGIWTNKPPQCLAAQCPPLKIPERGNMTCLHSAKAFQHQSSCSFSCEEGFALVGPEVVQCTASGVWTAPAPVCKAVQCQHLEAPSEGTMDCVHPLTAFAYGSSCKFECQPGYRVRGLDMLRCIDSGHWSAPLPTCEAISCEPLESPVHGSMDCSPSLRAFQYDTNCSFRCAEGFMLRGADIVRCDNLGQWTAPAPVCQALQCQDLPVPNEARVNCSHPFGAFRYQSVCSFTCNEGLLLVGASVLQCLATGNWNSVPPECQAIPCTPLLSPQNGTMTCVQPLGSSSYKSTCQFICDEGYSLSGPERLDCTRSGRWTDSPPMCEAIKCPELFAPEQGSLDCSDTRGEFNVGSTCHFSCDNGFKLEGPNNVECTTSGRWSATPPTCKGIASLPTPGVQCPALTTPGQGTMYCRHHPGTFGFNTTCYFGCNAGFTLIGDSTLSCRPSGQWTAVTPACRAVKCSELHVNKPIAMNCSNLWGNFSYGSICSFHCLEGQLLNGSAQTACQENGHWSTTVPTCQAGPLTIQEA
Experiment: SPR, BIACORE 2000; antibody captured by anti-human Fcγ on CM5, recombinant P-selectin 0-50 nM as analyte; 1:1 Langmuir fit

B1: HuMab 017 (antibody, V domains shown)
VH: QPQLVQSGAEVKKPGASVKVSCKVSGNTLTELSMHWVRQAPGKGLEWMGGFDPENGEAIYAQKFQGRVTMTADTSTDTAYMDLSSLRSEDTAVYYCATDLAGGSDFYYYGLDVWGQGTTVTVSS
VL: AIQLTQSPSSLSASVGDRVTITCRASQGISSALAWYQQKPGKAPKLLIYDASSLESGVPSRFSGSGSGTDFTLTISSLQPEDFATYYCQQFNSYPYTFGQGTKLEIK
notes: Human monoclonal antibody; kappa light and gamma1 heavy chains by the cloning section; also called antibody 017; LC 1004-017
B1 gave a Ka of 5.59e+09 M⁻¹.
